Patent publication US20210324104A1 (INSERM INSTITUT NATIONAL DE LA SANT ET DE LA RECHERCHE M …, published 2021)

Assays:
[1] = molecular target: T1, nectin-2 (UniProt Q92692 32-538, limits assumed); assay: western blot of lysates of MDA-MB-231 cells transfected with null vector (wt cells express nectin-1, -2, -3); similar results by FACS
T1 construct: whole, on cells
T1 sequence (looked up): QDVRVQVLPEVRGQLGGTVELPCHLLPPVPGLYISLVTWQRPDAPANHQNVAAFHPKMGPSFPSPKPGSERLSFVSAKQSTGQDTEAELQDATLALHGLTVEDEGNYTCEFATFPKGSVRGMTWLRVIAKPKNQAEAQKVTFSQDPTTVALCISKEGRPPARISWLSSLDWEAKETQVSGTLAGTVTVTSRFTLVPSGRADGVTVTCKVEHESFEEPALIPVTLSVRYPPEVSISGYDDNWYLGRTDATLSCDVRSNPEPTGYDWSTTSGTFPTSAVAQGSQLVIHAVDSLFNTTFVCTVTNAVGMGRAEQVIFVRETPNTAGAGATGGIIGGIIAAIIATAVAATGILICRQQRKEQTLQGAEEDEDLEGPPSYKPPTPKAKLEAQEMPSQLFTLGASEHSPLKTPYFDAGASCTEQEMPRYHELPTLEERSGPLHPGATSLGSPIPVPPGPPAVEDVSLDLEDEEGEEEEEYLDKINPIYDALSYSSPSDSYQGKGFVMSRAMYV

[2] = molecular target: T2, nectin-1 (UniProt Q15223 31-517, limits assumed); assay: as above
T2 construct: whole, on cells
T2 sequence (looked up): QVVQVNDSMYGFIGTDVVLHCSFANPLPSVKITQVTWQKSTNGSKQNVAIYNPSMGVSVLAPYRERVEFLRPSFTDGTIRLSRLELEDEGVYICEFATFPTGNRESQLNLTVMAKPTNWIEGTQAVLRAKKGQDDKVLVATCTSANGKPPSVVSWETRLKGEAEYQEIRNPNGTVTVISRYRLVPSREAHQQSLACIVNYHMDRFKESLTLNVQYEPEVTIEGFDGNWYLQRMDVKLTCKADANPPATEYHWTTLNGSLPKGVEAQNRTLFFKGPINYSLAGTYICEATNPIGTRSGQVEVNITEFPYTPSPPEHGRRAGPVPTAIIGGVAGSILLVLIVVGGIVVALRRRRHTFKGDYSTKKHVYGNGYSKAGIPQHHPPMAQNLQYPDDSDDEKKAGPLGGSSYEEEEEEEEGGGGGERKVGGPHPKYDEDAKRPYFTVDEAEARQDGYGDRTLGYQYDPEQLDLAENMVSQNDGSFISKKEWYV

binding result [1]: no binding (tested: 1 µg/ml)
binding result [2]: no binding (tested: 1 µg/ml)
B1: 14A5.2 monoclonal antibody (antibody, V domains shown)
VH: EVLLQQSGPELVKPGASVKIPCKASGYTFTDYTMDWVKQSHGKSLEWIGDINPNNDVTMYNEKFKGRATLTVDKSSSTAYMEVRSLTSEDTAVYYCVRGRGFAYWGQGTLVTVSA
VL: DIVLTQSPASLIVSLGQRATISCRASQSVSTSSNSYMHWYQQKPGQPPKLLIRFASNLESGVPARFSGSGSGTYFTLNIHPVEEEDSATYYCQHSWEIPYTFGGGTKLEIK
notes: Parental non-chimeric monoclonal antibody; also called 14A5.2 mab; 14A5.2-HRP
